T1: human PAC1 receptor (human, UniProt P41586 21-468)
T1 sequence: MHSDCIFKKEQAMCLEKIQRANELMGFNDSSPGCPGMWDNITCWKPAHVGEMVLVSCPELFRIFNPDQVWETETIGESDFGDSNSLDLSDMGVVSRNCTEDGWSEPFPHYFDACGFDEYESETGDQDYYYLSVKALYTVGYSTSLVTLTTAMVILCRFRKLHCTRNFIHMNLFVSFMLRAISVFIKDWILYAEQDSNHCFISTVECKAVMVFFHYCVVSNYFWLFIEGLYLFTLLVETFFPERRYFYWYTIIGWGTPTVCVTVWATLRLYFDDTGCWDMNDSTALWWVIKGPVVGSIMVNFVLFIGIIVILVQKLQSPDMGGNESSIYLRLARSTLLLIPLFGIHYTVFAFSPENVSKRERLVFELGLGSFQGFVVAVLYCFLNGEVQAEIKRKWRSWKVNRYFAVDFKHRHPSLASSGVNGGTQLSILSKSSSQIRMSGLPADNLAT


How the values were obtained:
human CGRP receptor = human CGRP receptor (human, UniProt Q16602 23-461; O60894 27-148); assay: cell-based or functional assay
human PAC1 receptor = target: T1, human PAC1 receptor; assay: cell-based or functional assay
Further: test concentration or dose not given here.

Sequence of human CGRP receptor (Q16602 23-461 limits assumed, chain 1 of 2): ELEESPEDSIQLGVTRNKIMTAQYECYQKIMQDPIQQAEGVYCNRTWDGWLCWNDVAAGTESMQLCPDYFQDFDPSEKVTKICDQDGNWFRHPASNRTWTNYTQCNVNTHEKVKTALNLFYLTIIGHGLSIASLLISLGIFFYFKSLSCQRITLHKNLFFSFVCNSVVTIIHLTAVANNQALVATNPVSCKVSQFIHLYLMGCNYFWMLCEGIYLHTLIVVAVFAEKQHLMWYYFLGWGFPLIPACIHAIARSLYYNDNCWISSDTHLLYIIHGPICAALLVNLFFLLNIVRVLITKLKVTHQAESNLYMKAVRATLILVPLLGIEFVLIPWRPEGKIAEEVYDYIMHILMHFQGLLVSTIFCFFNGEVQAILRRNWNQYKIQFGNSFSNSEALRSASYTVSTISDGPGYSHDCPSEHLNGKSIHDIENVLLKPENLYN
Sequence of human CGRP receptor (O60894 27-148 limits assumed, chain 2 of 2): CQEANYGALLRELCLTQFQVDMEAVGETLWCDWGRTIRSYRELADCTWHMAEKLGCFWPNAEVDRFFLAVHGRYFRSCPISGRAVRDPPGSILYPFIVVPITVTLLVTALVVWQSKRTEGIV

Row | Binder | % inhibition of human CGRPR (human CGRP receptor) | % inhibition of human PAC1 (human PAC1 receptor)
1 | iPS:327678 (bispecific antibody, human IgG1, kappa, N297G) light 1: not shown heavy 1: not shown light 2: EIVLTQSPGTLSLSPGERATLSCRASQSVSSGYLTWYQQKPGQAPRLLIYGASSRATGIPDRFSGSGSGTDFTLTISRLEPEDFAVYYCQQYGNSLSRFGQGTKLEIKRTVAAPSVFIFPPSDEQLKSGTASVVCLLNNFYPREAKVQWKVDNALQSGNSQESVTEQDSKDSTYSLKSTLTLSKADYEKHKVYACEVTHQGLSSPVTKSFNRGEC heavy 2: not shown | 84% | 43%
2 | iPS:327685 (bispecific antibody, human IgG1, kappa, N297G) light 1: not shown heavy 1: not shown light 2: EIVLTQSPGTLSLSPGERATLSCRASQSVSSGYLTWYQQKPGQAPRLLIYGASSRATGIPDRFSGSGSGTDFTLTISRLEPEDFAVYYCQQYGNSLSRFGQGTKLEIKRTVAAPSVFIFPPSDEQLKSGTASVVCLLNNFYPREAKVQWKVDNALQSGNSQESVTEQDSKDSTYSLKSTLTLSKADYEKHKVYACEVTHQGLSSPVTKSFNRGEC heavy 2: not shown | 86% | 85%
3 | iPS:327684 (bispecific antibody, human IgG1, kappa, N297G) light 1: EIVLTQSPATLSLSPGERATLSCRASQSVGRSLHWYQQKPGQAPRLLIKYASQSLSGIPARFSGSGSGTDFTLTISSLEPEDFAVYYCHQSSRLPFTFGEGTKVDIKRTVAAPSVFIFPPSDEQLKSGTASVVCLLNNFYPREAKVQWKVDNALQSGNSQESVTEQDSKDSTYSLESTLTLSKADYEKHKVYACEVTHQGLSSPVTKSFNRGEC heavy 1: not shown light 2: EIVLTQSPGTLSLSPGERATLSCRASQSVSSGYLTWYQQKPGQAPRLLIYGASSRATGIPDRFSGSGSGTDFTLTISRLEPEDFAVYYCQQYGNSLSRFGKGTKLEIKRTVAAPSVFIFPPSDEQLKSGTASVVCLLNNFYPREAKVQWKVDNALQSGNSQESVTEQDSKDSTYSLKSTLTLSKADYEKHKVYACEVTHQGLSSPVTKSFNRGEC heavy 2: QVQLVESGGGVVQPGRSLRLSCAASGFTFSSYGMHWVRQAPGKELEWVAVIWYDGSNKYYAESVKGRFIISRDKSKNTLYLQMNSLRAEDTAVYYCARAGGIAAAGLYYYYGMDVWGQGTTVTVSSASTKGPSVFPLAPSSKSTSGGTAALGCLVKDYFPEPVTVSWNSGALTSGVHTFPAVLQSSGLYSLESVVTVPSSSLGTQTYICNVNHKPSNTKVDKKVEPKSCDKTHTCPPCPAPELLGGPSVFLFPPKPKDTLMISRTPEVTCVVVDVSHEDPEVKFNWYVDGVEVHNAKTKPCEEQYGSTYRCVSVLTVLHQDWLNGKEYKCKVSNKALPAPIEKTISKAKGQPREPQVYTLPPSRKEMTKNQVSLTCLVKGFYPSDIAVEWESNGQPENNYKTTPPVLKSDGSFFLYSKLTVDKSRWQQGNVFSCSVMHEALHNHYTQKSLSLSPGK | 71% | 74%
4 | iPS:327686 (bispecific antibody, human IgG1, kappa, N297G) light 1: not shown heavy 1: not shown light 2: EIVLTQSPGTLSLSPGERATLSCRASQSVSSGYLTWYQQKPGQAPRLLIYGASSRATGIPDRFSGSGSGTDFTLTISRLEPEDFAVYYCQQYGNSLSRFGQGTKLEIKRTVAAPSVFIFPPSDEQLKSGTASVVCLLNNFYPREAKVQWKVDNALQSGNSQESVTEQDSKDSTYSLKSTLTLSKADYEKHKVYACEVTHQGLSSPVTKSFNRGEC heavy 2: not shown | 87% | 69%

Results, then the binder that gave them:

Row | % inhibition of human CGRPR (human CGRP receptor) | % inhibition of human PAC1 (human PAC1 receptor) | Binder
5 | 91% | 62% | iPS:327687 (bispecific antibody, human IgG1, kappa, N297G) light 1: DIQLTQSPSFLSASVGDRVTITCRASQSIGRSLHWYQQKPGKAPKLLIKYASQSLSGVPSRFSGSGSGTEFTLTISSLQPEDFATYYCHQSSRLPFTFGPGTKVDIKRTVAAPSVFIFPPSDEQLKSGTASVVCLLNNFYPREAKVQWKVDNALQSGNSQESVTEQDSKDSTYSLESTLTLSKADYEKHKVYACEVTHQGLSSPVTKSFNRGEC heavy 1: not shown light 2: EIVLTQSPGTLSLSPGERATLSCRASQSVSSGYLTWYQQKPGQAPRLLIYGASSRATGIPDRFSGSGSGTDFTLTISRLEPEDFAVYYCQQYGNSLSRFGQGTKLEIKRTVAAPSVFIFPPSDEQLKSGTASVVCLLNNFYPREAKVQWKVDNALQSGNSQESVTEQDSKDSTYSLKSTLTLSKADYEKHKVYACEVTHQGLSSPVTKSFNRGEC heavy 2: not shown
6 | 78% | 86% | iPS:327689 (bispecific antibody, human IgG1, kappa, lambda, N297G) light 1: not shown heavy 1: not shown light 2: QSVLTQPPSVSAAPGQKVTISCSGSSSNIGNNYVSWYQQLPGTAPKLLIYDNNKRPSGIPDRFSGSKSGTSTTLGITGLQTGDEADYYCGTWDSRLSAVVFGGGTKLTVLGQPKANPTVTLFPPSSEELQANKATLVCLISDFYPGAVTVAWKADGSPVKAGVETTKPSKQSNNKYAAKSYLSLTPEQWKSHRSYSCQVTHEGSTVEKTVAPTECS heavy 2: QVQLVESGGGVVQPGRSLRLSCAASGFTFSSFGMHWVRQAPGKGLEWVAVISFDGSIKYSVDSVKGRFTISRDNSKNTLFLQMNSLRAEDTAVYYCARDRLNYYESSGYYHYKYYGMAVWGQGTTVTVSSASTKGPSVFPLAPSSKSTSGGTAALGCLVKDYFPEPVTVSWNSGALTSGVHTFPAVLQSSGLYSLESVVTVPSSSLGTQTYICNVNHKPSNTKVDKKVEPKSCDKTHTCPPCPAPELLGGPSVFLFPPKPKDTLMISRTPEVTCVVVDVSHEDPEVKFNWYVDGVEVHNAKTKPCEEQYGSTYRCVSVLTVLHQDWLNGKEYKCKVSNKALPAPIEKTISKAKGQPREPQVYTLPPSRKEMTKNQVSLTCLVKGFYPSDIAVEWESNGQPENNYKTTPPVLKSDGSFFLYSKLTVDKSRWQQGNVFSCSVMHEALHNHYTQKSLSLSPGK
7 | 80% | 50% | iPS:327690 (bispecific antibody, human IgG1, kappa, lambda, N297G) light 1: not shown heavy 1: not shown light 2: QSVLTQPPSVSAAPGQKVTISCSGSSSNIGNNYVSWYQQLPGTAPKLLIYDNNKRPSGIPDRFSGSKSGTSTTLGITGLQTGDEADYYCGTWDSRLSAVVFGGGTKLTVLGQPKANPTVTLFPPSSEELQANKATLVCLISDFYPGAVTVAWKADGSPVKAGVETTKPSKQSNNKYAAKSYLSLTPEQWKSHRSYSCQVTHEGSTVEKTVAPTECS heavy 2: QVQLVESGGGVVQPGRSLRLSCAASGFTFSSFGMHWVRQAPGKGLEWVAVISFDGSIKYSVDSVKGRFTISRDNSKNTLFLQMNSLRAEDTAVYYCARDRLNYYESSGYYHYKYYGMAVWGQGTTVTVSSASTKGPSVFPLAPSSKSTSGGTAALGCLVKDYFPEPVTVSWNSGALTSGVHTFPAVLQSSGLYSLESVVTVPSSSLGTQTYICNVNHKPSNTKVDKKVEPKSCDKTHTCPPCPAPELLGGPSVFLFPPKPKDTLMISRTPEVTCVVVDVSHEDPEVKFNWYVDGVEVHNAKTKPCEEQYGSTYRCVSVLTVLHQDWLNGKEYKCKVSNKALPAPIEKTISKAKGQPREPQVYTLPPSRKEMTKNQVSLTCLVKGFYPSDIAVEWESNGQPENNYKTTPPVLKSDGSFFLYSKLTVDKSRWQQGNVFSCSVMHEALHNHYTQKSLSLSPGK
8 | 65% | 95% | iPS:328001 (bispecific antibody, human IgG2, kappa, lambda) light 1: EIVLTQSPATLSLSPGERATLSCRASQSVGRSLHWYQQKPGQAPRLLIKYASQSLSGIPARFSGSGSGTDFTLTISSLEPEDFAVYYCHQSSRLPFTFGPGTKVDIKRTVAAPSVFIFPPSDEQLKSGTASVVCLLNNFYPREAKVQWKVDNALQSGNSQESVTEQDSKDSTYSLESTLTLSKADYEKHKVYACEVTHQGLSSPVTKSFNRGEC heavy 1: QVQLVESGGGVVQPGRSLRLSCAASGFTFSRFAMHWVRQAPGKGLEWVAVISYDGGNKYYAESVKGRFTISRDNSKNTLYLQMNSLRAEDTALFYCARGYDVLTGYPDYWGQGTLVTVSSASTKGPSVFPLAPCSRSTSESTAALGCLVKDYFPEPVTVSWNSGALTSGVHTFPAVLQSSGLYSLKSVVTVPSSNFGTQTYTCNVDHKPSNTKVDKTVERKCCVECPPCPAPPVAGPSVFLFPPKPKDTLMISRTPEVTCVVVDVSHEDPEVQFNWYVDGVEVHNAKTKPREEQFNSTFRVVSVLTVVHQDWLNGKEYKCKVSNKGLPAPIEKTISKTKGQPREPQVYTLPPSREEMTKNQVSLTCLVDGFYPSDIAVEWESNGQPENNYDTTPPMLDSDGSFFLYSDLTVDKSRWQQGNVFSCSVMHEALHNHYTQKSLSLSPGK light 2: QSVLTQPPSVSAAPGQKVTISCSGSSSNIGNNYVSWYQQLPGTAPKLLIYDNNKRPSGIPDRFSGSKSGTSTTLGITGLQTGDEADYYCGTWDSRLSAVVFGGGTKLTVLGQPKANPTVTLFPPSSEELQANKATLVCLISDFYPGAVTVAWKADGSPVKAGVETTKPSKQSNNKYAAKSYLSLTPEQWKSHRSYSCQVTHEGSTVEKTVAPTECS heavy 2: QVQLVESGGGVVQPGRSLRLSCAASGFTFSSFGMHWVRQAPGKGLEWVAVISFDGSIKYSVDSVKGRFTISRDNSKNTLFLQMNSLRAEDTAVYYCARDRLNYYDSSGYYHYKYYGMAVWGQGTTVTVSSASTKGPSVFPLAPCSRSTSESTAALGCLVKDYFPEPVTVSWNSGALTSGVHTFPAVLQSSGLYSLESVVTVPSSNFGTQTYTCNVDHKPSNTKVDKTVERKCCVECPPCPAPPVAGPSVFLFPPKPKDTLMISRTPEVTCVVVDVSHEDPEVQFNWYVDGVEVHNAKTKPREEQFNSTFRVVSVLTVVHQDWLNGKEYKCKVSNKGLPAPIEKTISKTKGQPREPQVYTLPPSRKKMTKNQVSLTCLVKGFYPSDIAVEWESNGQPENNYKTTPPMLKSDGSFFLYSKLTVDKSRWQQGNVFSCSVMHEALHNHYTQKSLSLSPGK
